Assay: soluble fraction after stress (log2 fold change); higher = more stays soluble; pooled small domains, quantitative proteomics
Conditions: stress: pH 4
How it was run: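 Custom libraries of small protein domains were pooled and exposed to pH 4. High-throughput quantitative proteomics then measured the log2 fold change in the amount of each domain still soluble, with higher values meaning more stayed soluble. This soluble-fraction fold change stands for aggregation propensity.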

Sequence	soluble fraction (log2)
HMAADWTAIKLAYVNGGMSMRELAQRFHVGAAGLMKRAAKEGWEAERQQNSAKVSNAAQMLIN	0.125
HMAAEEAFPGGRIVQNAEENRLQILFDEIPGEDVRAALKSHGFRWSPKNKAWQRQLTQNAEYDARRILGI	-0.033
HMAAEELTVDKILTAQSFGVTAEAILAKVNDPANTVATLTQADVDRLRAAGVPEGVVTALQARAPQ	-0.155
HMAAENAVGARVKALREAMDLSLRDLSERSGVSPTMLSQVERGSTSPTLAVAEKIAAGLDLSLSQLLRL	0.124
HMAAGADEATTVPNVSGDTLNQAIKSLKAEGLGYMLSGAGARVRDQMPEPGAEMTKGSVVMLYMDGDAEVD	0.399
HMAAGVESLTEKEFAVASLVGGGASNREIAERLAMSERTVKSHLSSIFRKMDVRDRVQLALAMND	-0.0425
HMAAIPATVDEETYRRLKPMLKQYGILYHEFKPLRSGKKGAVELIFMEKDLALVQELLSRLKKEK	-0.0159
HMAAIPEQVSEEVVSAVKASGIDPGKVTKEQWTSLLKGRRTALGSSSGKLFMLSKAPVGYTLKAVNA	-0.000834
HMAAMDMFVKLDALDAELTEQLKALPAEPDDARVERGLALLTDYDHRIKALLTEIFGGENDFDKVL	-2.25
HMAAPPPLSDYRNMQEAEHIRNILLQHHGNVRRAAAALELSRPYLYQKMKQLGINIAELRELSLSHSS	0.161
HMAASEAESIRILLSEGVDRVHLRKPQSAEADMRRLIEALPPELYPRLTLQDHLHLAGEYGT	-0.162
HMAATGPLTPREAEIARLAAGHLSNRQIAEQLVVSERTVENHLYRIFIKLAVTGRDDLAAALAATEQ	-1.17
HMAATNVKVPDLKGWDYNNAVGKYGDKLSFVKKSIYSDSVSKGIIIYNARVGETVAQGTTIEVTVSLGPKG	0.0127
HMAAVPYQVKITTEDLRIRTGPGTNHDFTGQYTGKGVFTIVEESEGSGAPIWGRLKSGAGWIGIDPSWSVR	-0.524
HMADAGQTTAATELKQAPNAGSATISQLSAGQTLQIGTRQGAWYQVKTPQGEGWVRMLSVRLQ	0.0688
HMADEGFRQTVLAVLARWESKIHHGQYNALKAKVMNGNWSSFVKQVVKFQGKFIHPDAAKELLGLFG	-1.17
HMADFIKEIKTNNPRQLLKSILSSFMPRALILELEMLLWNDLKSKPIGEWSNTQIENVGKLLNNWILKPAA	0.164
HMADIWDLLRSEYKLTETDVRMLTDMLPDELMNDFRSEVLALRDRMNRYKVNNPKSYVVTSLKNFIIQHTP	-0.787
HMADKNIIGVLSAADNLGKVRITTANGEKYIITVPDGLSDIVKTYWEEEVSVKYVIEKRRKILVDIDG	-0.47
HMADLIIMSSDATEKQVDKVINKIKNMGFNVNISKGTEKTIIGIIGDTRGISDEVFKIMPGVIEVISILRD	-0.38
HMADLIVFTTDANKEKKVDDETYFYLDVVSDGKLVENYELTEKQYNYIKDLGVGEYVYNEKGKLDSYTAFT	-1.12
HMADPLQLLEQQRQDYIQAVTEYLNSHPNAKPIWDVMKKDAGYGDMKLTDIPLGILKKLYITLT	-0.137
HMADRVFGHIPGVAVGSIFPDRRSLSQTGVHRPTQAGISGNKTDGADSIVVSGGYRDDRDYGDLIIYTG	-0.746
HMADTFVMPDLVYRRYEPVRGYFERGGFHMGAVKFEPYEGISDGTILRQNPLPGHPLRRRDVISLVVAAS	-0.464
HMADYYETLGVERTASEEDIKRAYRKMSRKYHPDIAGPEFEEKFKEVNTAYEVLSDPDKRRMYDAGVDPND	0.0648

Sequence	soluble fraction (log2)
HMADYYSILGLTKNATDIEIKSAFRKLAKIYHPDKNPDPNARVLFEHILKAYDTLINPHSRRRYDSL	0.22
HMAEELELFHRLISVTGVGPKGALGFLSQLKPQEIILAILSDDVKTLSKAPGVGRKTAQRVILELKDKF	-0.828
HMAEGPYSGKKVEKYPGGMEKRETMYSEGKLTRVTEFHQSGQKKMEVKVDANGQWKRLYWDNNGNPT	-0.086
HMAEIIVHEINRHLGESDEPVEFPEERREEAVAELLKNFHNDDAFRKMDDGKYEVALDGEAVREAARSLLA	-0.256
HMAELTTVQAADILHVSRPFLIKLLDEGQIPYHRVGKHRRIRMEDVMNYKRAIDQQREAVLDQLVAEA	0.014
HMAEMLQDVLNMLSAKDREILVRYYYYYESVKQVAAEMQMSESAVKMRMSRARKKMQQELIDKG	-0.704
HMAEPAEDLLSLEGMDKGLAYQLASNGVVTREDLAELATDDLLEIREMDAEQAAALIMKAREHWFEAEQQ	-1.94
HMAEPEALLAMAQRILGEEVAQSLFQGAAREQGKEGYLPDPTPAFLDALEARLSGSVGAATAHAMISQLVG	-0.473
HMAEPSTSYTQFMDQAKEGKIKRVDVQGRTLTVTPTEGATYKITAPGDLWMVEDLRKAGVQVYGQP	0.076
HMAEPYDERKVMEQMIPKGKNTIVAHLGHLKDHGETGYLQEALSYLRERESELGFDLKEVRALVHN	-0.223
HMAEQVLHQKLAARRKELNSLVAQVARVRGIPHSHVHSGLRREAGGPPLAQATTDQVEARISLARKWLRA	-0.000969
HMAERLQARIDAPGVRLDKALAETFPTLSRARLQALLADGAVTRDGQTVSNGSAKAQPGLYVVALPPVA	0.316
HMAESNQIQLSDVREALNMIGPASWLDLVHYLDTGKGRGGQRLRRMLKSLSRSGEIELVARGTYQITDN	-0.742
HMAEVALFVNGSDVNLRSGPGQESTRVIGSLNLGDEVRIKSQNGQWREVYVPKTRQVGWVAHWLLSEAPP	-0.527
HMAEVPDLRNKTQQEAEAELTNHNLKLGNVTEEYSATVEAGRVISQSTSYGTKVLEGSSVDITISKGPEPT	0.156
HMAEWLFDARKIPDEVMNYLRRIAVQAIEEKHYSPELVADLLGISRSSIYDWLNWYRNGGEEDLDTRKA	-0.543
HMAFAQMAQEAAKGKDDFNDLRQEMEAVIKEQPHILLMAQFGQNPYEIAYQEAKRRKAQDQQQQQ	-0.805
HMAFGTGTVTASSLRVREDASTSAATLDTLSKGSKVSVLADEQDGFYKVQIGEQVGYMSAEYLDVTE	-0.269
HMAFKNGLLQTSKKVTLVRKVDGVTMRFDSLRAASVFLGRNKGYLSNVIKNGRTLDNYEIVVGE	0.0346
HMAFRIGGFVQEGSVVRQQDGGTVRFEVTDTAHSVPVTYKGSLPDLFKEGKGVVAQGKLMNGTFVADQVLA	-0.186
HMAGATDTVRNLLERQIREGELLPGQRLPTEPELAARLGVSRNSLREALQSLEDSGLIVKRHGIGTFVTE	0.22
HMAGLELVVTREQAGRTVKSLLRGELGISTALMGRLKRTGTGLTVNGTRVFTNAVLREGDRLAVDLDAAE	-0.0613
HMAGLKERLFYFIEYKGLTVQSFEKTVGLSNGAVSKMGDNTRRSTIDKISNFFGDLNKNWLLTGEGEMLI	-0.638
HMAGRKMMVMANNLSVRKSANSLSEKLADLSRGDTVEYISSTNGWNKVRYKGQIGYVSSYYLKDTGEEVE	0.216
HMAGTKRAENIEIQKLTEVLEARLDSVGFFWPDHKAESMIMTLRNMISRLPLTEADVRVFHGIIKSLADK	-0.727

Sequence	soluble fraction (log2)
HMAGTWQDQGNGQWKYQNDDGSYATGWIEDSGKSYYLDANGIMLANTTTPDGKQVGPDGALIP	-1.69
HMAHETIDVAALRVGMFVQLDLGWLSHPFPLSSFRISSEDQIATIRALGLKRVRWSSEQSDS	-2.26
HMAHPRTHEALNPLWEKYLGPNAGNDFFLSGGTSLKALMFLKDLEKTLNKRIAIHAFFKDPTYEHVVSD	-0.467
HMAHTGGNTLTREKAVSVRSASDALLFEIHWNETPREDILSTREEKVDGKTYSIITIRTGKGREDHYYLLS	0.295
HMAHYPGKVNNELVEFIRSEQRKTPHMTLTGLNRKLQRTYDLTLSESTVRKLVEAETILPLAREPD	0.217
HMAIDLPVTTVNGKDYYYYDVQPKETIFSLSQRLGISREEIISYNPGVDGGLKAYTRLYFPVESGL	-0.0117
HMAIDLSLIPGNLLRELHGAVEDGDMYRIRELIRSISAVDEKVGKELLLLAERYDYERLLELVND	-1.03
HMAIDWVQIKAEYISGTMSASKLAEKHGVSVYAIRKRSGKERWQELRRQNQSETANKIAEKI	-0.0638
HMAIDYYQTLINLGYKLQDRGDYWQTSAIHRGGDNPTALQIYKNTGVWKDYVSGGGFKPFKALVEKSD	-0.35
HMAIELTPRQLDIIELVRKHAPITGEQIAELLGVTRPSIRSDLGLLVMLGYIDAKPKVGYFAGPRM	-0.893
HMAIGSRLKVTTDATNLNIRSTPSTEGDIVGKAAHHEIVTLVEKTDDSWWKIKTNDGEEGYAYAQYLSPV	0.0608
HMAIIQSNNIFKSQKEIVDEILVELDIPKDKWNFFHMLISSGYKDEFDTNRIYEIIQTNYNMMDR	-0.693
HMAILDTALDVLSMNLKDNYTSFQILRQAAIAGKIAFNLTEKNPLGGVIEVELTGDDLETWIEAATW	-0.697
HMAIMISINAKGEVAWNDQIISLDDLAQRFNAAGQQAQKPTVQLRADKESRYDMVAQVMSRASEAGLSDIA	-0.966
HMAIRLIKASREFNVGISTIVEFLEKKGHAIDSDPNSKIPDELYQLIEKEFQTEGSVKKAAKQI	-0.335
HMAITLEVAKKHLEMWLEAESEVAINQSYTIGGKSFTRANLAEIRKQIEYWSNKVAELENLA	-0.247
HMAITYETKVISGVNLRSAPSTSASVYQLIPKGENIHVVQKVNDYWLKVQTKDGKTGYISASSKYTNYIG	0.0502
HMAIWAVFYKNEPFNLKSFNSLTSYPGPKYKKTSFSNPGHALNLAKKLNLTFGTEDFQVVKLTQGTIV	0.00875
HMAKIEVENLEETILENLKANNGFMPYNDKTSPEEIYEVFHVSKKHFKNSLGGLMKKGLIFQNEKGTKL	-0.444
HMAKITERVMGSAALRDYDPNYLPDEVLKALDGYPPFDGYVYKDGILYARVKIGDTFFIIPPI	-1.84
HMAKKDVESTLGGRLRVARVRAGLTQVELARMLGMNSVSLSNVEGGRRGLSMKQLVRVAKILEVPVAYLLG	0.151
HMAKMPSIIIMKDGVIRTSELEQIERDENWLNEEMKKQHIDNPEDVFLAEFWDGKVNFILQDGKIK	-0.78
HMAKNDSGLNNHTFNTIRDALQKALTDGPQEAKKLTENLPFPADKIITVIRYLADHDEHFSLEDGIISLT	-0.0785
HMAKNIEVPNLVGSTISVARNDLKQLGLHVIVRDSVWSEDKKIDTILEQFPEPGKKLKPEGVVQVVVSI	0.0706
HMAKNSVLTIELWNSTAFKWRKDTEPYSESMSVDFNRSVRLTDGISIMFSKFGFVPGIQYLIPLQT	-0.331

— the domain aggregation screens of Martell et al. (2025)
